Blank lines part the entries; values can stand above or below the substance they belong to.
Tests used:
Assay in all cases: cross-linking; in vivo cysteine cross-linking with 180 μM aldrithiol-4, 20 min, 37 °C, in SUKO HEK-293T cells expressing single-cysteine STIM1 with or without UNC93B1-FLAG-MYC, treated or not with 0.5 μM thapsigargin for 5 min; non-reducing electrophoresis, blot with anti-STIM1
[1] = biological target: STIM1-A230C (cysteine-less STIM1 with a single cysteine at residue 230, TM region) (UniProt Q13586)
[2] = biological target: STIM1-L251C (cysteine-less STIM1 with a single cysteine at residue 251, CC1 domain) (UniProt Q13586)
[3] = biological target: STIM1-M241C (cysteine-less STIM1 with a single cysteine at residue 241, juxtamembrane region) (UniProt Q13586)

stoichiometry N [1]: 2
Substance: STIM1-A230C (cysteine-less STIM1 with a single cysteine at residue 230, TM region) (from UniProt Q13586 23-685) (natural protein)

Substance: STIM1-L251C (cysteine-less STIM1 with a single cysteine at residue 251, CC1 domain) (from UniProt Q13586 23-685) (natural protein)
stoichiometry N [2]: 2

stoichiometry N [3]: 2
Substance: STIM1-M241C (cysteine-less STIM1 with a single cysteine at residue 241, juxtamembrane region) (from UniProt Q13586 23-685) (natural protein)

— article PMC8857484
